Assay results reported in US20250257126A1 (CAMBRIDGE ENTERPRISE, published 2025).
Where a chain is given by its changes, count along the chain named. One block for each binder: values may come before it.

Tests used:
[1] = target: T1, human LGR5-eGFP transgene (human, UniProt O75473 22-907); assay: western blot of HEK293T lysates expressing the human LGR family transgenes
T1 construct: Tested on live or fixed cells and as cell lysates on western blots; also called hLGR5-eGFP; LGR5-GFP
T1 sequence: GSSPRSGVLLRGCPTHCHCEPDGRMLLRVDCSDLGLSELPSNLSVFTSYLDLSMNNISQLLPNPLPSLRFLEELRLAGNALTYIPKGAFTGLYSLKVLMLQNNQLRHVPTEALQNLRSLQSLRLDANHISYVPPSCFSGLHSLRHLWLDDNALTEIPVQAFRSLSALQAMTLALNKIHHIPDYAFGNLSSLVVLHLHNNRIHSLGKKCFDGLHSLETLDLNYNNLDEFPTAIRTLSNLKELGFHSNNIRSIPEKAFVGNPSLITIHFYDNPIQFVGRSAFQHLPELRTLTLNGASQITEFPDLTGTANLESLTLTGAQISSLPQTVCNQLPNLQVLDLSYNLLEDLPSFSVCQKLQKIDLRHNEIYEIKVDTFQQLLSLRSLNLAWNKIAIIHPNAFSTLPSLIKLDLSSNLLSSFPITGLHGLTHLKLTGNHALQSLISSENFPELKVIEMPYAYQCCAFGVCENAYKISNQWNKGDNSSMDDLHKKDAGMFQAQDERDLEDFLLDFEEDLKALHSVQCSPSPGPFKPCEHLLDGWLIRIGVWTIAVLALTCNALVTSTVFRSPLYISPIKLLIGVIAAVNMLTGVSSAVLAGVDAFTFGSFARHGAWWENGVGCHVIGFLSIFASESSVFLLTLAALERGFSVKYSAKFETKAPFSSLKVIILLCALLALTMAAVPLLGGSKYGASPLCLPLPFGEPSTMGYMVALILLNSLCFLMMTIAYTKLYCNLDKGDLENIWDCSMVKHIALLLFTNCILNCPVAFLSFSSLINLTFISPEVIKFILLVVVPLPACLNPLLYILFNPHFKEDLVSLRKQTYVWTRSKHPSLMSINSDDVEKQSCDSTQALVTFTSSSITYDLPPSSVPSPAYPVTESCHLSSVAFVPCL

murine LGR5 transgene [2] = target: T2, murine LGR5 transgene (mouse, UniProt Q9Z1P4 22-907); assay: western blot of lysates of HEK293T cells expressing mLGR5, hLGR5 or cynoLGR5 transgenes, probed with hybridoma clone 1
T2 construct: whole, on cells; Overexpressed in HEK293T cells with N-terminal HA tag, V2 receptor tail and eGFP; also tested as lysate; also called mLGR5; mLGR5-eGFP
T2 sequence (looked up): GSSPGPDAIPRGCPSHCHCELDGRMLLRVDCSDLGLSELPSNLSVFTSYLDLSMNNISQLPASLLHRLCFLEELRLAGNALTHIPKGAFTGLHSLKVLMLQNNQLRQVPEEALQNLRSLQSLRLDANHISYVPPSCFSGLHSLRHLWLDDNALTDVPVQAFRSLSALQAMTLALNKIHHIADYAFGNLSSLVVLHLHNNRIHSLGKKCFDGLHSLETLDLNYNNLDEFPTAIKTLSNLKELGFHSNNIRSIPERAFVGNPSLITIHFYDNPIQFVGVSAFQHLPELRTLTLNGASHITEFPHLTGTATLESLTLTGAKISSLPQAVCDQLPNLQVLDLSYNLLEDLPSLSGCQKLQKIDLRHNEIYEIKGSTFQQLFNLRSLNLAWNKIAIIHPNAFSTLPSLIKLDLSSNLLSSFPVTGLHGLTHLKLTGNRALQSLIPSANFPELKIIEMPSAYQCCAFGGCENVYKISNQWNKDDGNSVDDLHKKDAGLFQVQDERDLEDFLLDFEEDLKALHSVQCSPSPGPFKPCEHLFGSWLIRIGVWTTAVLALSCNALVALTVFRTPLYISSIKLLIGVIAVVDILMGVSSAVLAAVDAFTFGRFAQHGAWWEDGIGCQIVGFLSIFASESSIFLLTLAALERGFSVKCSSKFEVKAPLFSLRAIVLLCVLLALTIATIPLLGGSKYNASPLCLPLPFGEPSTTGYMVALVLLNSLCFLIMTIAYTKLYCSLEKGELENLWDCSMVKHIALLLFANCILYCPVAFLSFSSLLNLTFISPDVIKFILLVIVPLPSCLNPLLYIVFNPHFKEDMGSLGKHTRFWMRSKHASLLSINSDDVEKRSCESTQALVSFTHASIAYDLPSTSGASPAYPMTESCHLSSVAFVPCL

[3] = target: T1, human LGR5-eGFP transgene; assay: as above
murine LGR5 transgene [4] = target: T2, murine LGR5 transgene; assay: western blot of lysates of HEK293T cells expressing mLGR5, hLGR5 or cynoLGR5 transgenes, probed with hybridoma clone 3
[5] = target: T1, human LGR5-eGFP transgene; assay: as above
murine LGR5 transgene [6] = target: T2, murine LGR5 transgene; assay: western blot of lysates of HEK293T cells expressing mLGR5, hLGR5 or cynoLGR5 transgenes, probed with hybridoma clone 4
[7] = target: T1, human LGR5-eGFP transgene; assay: as above

binding result [1]: binds
B1: hybridoma clone 12 (antibody, V domains shown)
VH: EVQLQQSGPELVKPGASVKISCKASGYTFTDYYMNWVKQSHGKSLEWIGDINPNNGGTIYNQKFKGKATLTVDKSSSTAYMELRSLTSEDSAVYYCASGYLFDYWGPGTTLTVSS
VL: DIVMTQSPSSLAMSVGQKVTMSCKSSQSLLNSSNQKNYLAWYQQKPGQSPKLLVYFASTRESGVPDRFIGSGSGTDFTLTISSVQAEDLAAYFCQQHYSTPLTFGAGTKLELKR
notes: Murine antibody; also called antibody 12

binding result (murine LGR5 transgene [2]): no binding
binding result [3]: binds
B2: α-LGR5 clone 1 (antibody, mouse IgG1, kappa, V domains shown)
VH: QVQLQQPGAELVKPGASVKLSCKASGYTFTSYWMQWVKQRPGQGLEWIGEIDPSDYYTNYNQKFKGKATLTVDTSSSTAYMQLSSLTSEDSAVYYCARSLSGYVDYWGQGTTLTVSS
VL: DIQMTQSTSSLSASLGDRVTINCRASQDIRNRLNWYQQKPDGTVKLLISYRSRLQSGVPSRFSGSGSGTEYSLTISNLEQEDIATYFCQQGNTLPPTFGGGTKLEVRR
notes: Murine monoclonal antibody from hybridoma; also called hybridoma clone 1; antibody 1

binding result (murine LGR5 transgene [4]): no binding
binding result [5]: binds
B3: α-LGR5 clone 3 (antibody, mouse IgG1, kappa, V domains shown)
VH: B2 VH with Y56S, T58S
VL: B2 VL with S7T, N22S, R30S, E70D, Q80E
notes: Murine monoclonal antibody from hybridoma; also called hybridoma clone 3; antibody 3

binding result (murine LGR5 transgene [6]): no binding
binding result [7]: binds
B4: α-LGR5 clone 4 (antibody, mouse IgG2b, kappa, V domains shown)
VH: B2 VH with S31D, Y56S, K65Q, M81I, E89D, Y103S
VL: B2 VL with S7T, N22S, R30S, E70D, S76T
notes: Murine monoclonal antibody from hybridoma; also called hybridoma clone 4; antibody 4
